Measurements reported in patent US20040248207A1 (UNIVERSITY COLLEGE LONDON, published 2004).

T1: GFP/p11-1 fusion protein (rat)
T1 construct: Used as COS-7 cell lysate; not shown: GFP reporter at the N end and its junction; vector-encoded C-terminal tail after the XbaI site (reverse primer p11-1-3' has no stop codon)
T1 chain: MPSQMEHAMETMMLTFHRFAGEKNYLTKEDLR

T2: GFP/p11-1A fusion protein (rat, UniProt P05943 1-51)
T2 construct: Used as COS-7 cell lysate; not shown: GFP reporter at the N end and its junction; vector-encoded C-terminal tail after the XbaI site (reverse primer p11-2-1R has no stop codon)
T2 sequence: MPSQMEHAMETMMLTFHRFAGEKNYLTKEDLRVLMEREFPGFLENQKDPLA


Key:
Experiment in all cases: GST pull-down on glutathione-sepharose beads, anti-GFP immunoblot
GFP/p11-1 fusion protein = target: T1, GFP/p11-1 fusion protein
Procedure: (§1) To examine the binding of p11 to the N-terminus of Naᵥ1.8 in vitro, glutathione-sepharose beads pre-incubated with purified GST, serving as control, or GST-SNS(I) were incubated at 4° C. overnight with GFP-p11 fusion protein or GFP protein extracted from transfected COS cells in PBS. After intensive washing with ice-cold PBS, the bound proteins were denatured in sample buffer (100 mM Tris-HCl pH 6.8, 4% SDS, 0.2% Bromophenol Blue, 20% Glycerol. 200 mM DDT), separated by 10% SDS-PAGE, and transferred to nitrocellulose membrane (Hybond ECL; Amersham Pharmacia Biotech). The membrane was blocked for 1 h in 5% nonfat dry mirnl in PBS-T at room temperature (0.1% Tween-20 in PBS, pH7.4). Primary anti-GFP antibody (Santa Cruz Biotechnology) in 1:800 dilution was applied for 1 hr at room temperature. Secondary antibody (horseradish peroxidase-conjugated sheep anti-mouse IgG, Amersham Pharmacia Biotech) in 1:2000 dilution was applied for 1 hr at room temperature. ECL Western Blotting Detection Reagents (Amersham Pharmacia Biotech) was applied according to the manufacturer's instructions and the blot was exposed to BioMax film (Kodak).
(§2) GFP/p11-1, -2, -3 fusion protein were expressed in COS-7 cells by transient transfection. The COS cell lysates were incubated with affinity-purified GST-SNS(I), the N-terminal domain of Naᵥ1.8 fused to GST, immobilized on glutathione-sepharose beads and were examined by immunoblotting with anti-GFP antibodies.
as §2, with “GFP/p11-1A, p11-2, p11-2-1, and p11-2-2” for “GFP/p11-1, -2, -3”, “proteins” for “protein”, “antibodies. […] These protein fragments correspond to amino acids 1-51, 33-51, 52-77 respectively. GST-SNS(I) efficiently pulled down cell lysate p11-2.” for “antibodies.”

[1] = target: T2, GFP/p11-1A fusion protein
Procedure: as §1, §2
as §2, with “GFP/p11-1A, p11-2, p11-2-1, and p11-2-2” for “GFP/p11-1, -2, -3”, “proteins” for “protein”, “antibodies. […] These protein fragments correspond to amino acids 1-51, 33-51, 52-77 respectively. GST-SNS(I) efficiently pulled down cell lysate p11-2.” for “antibodies.”

GST control protein = target: T3, GST control protein (UniProt P08515 1-218 = GST)
T3 construct: Negative control on glutathione-sepharose beads; also called purified GST
T3 sequence (P08515 whole entry): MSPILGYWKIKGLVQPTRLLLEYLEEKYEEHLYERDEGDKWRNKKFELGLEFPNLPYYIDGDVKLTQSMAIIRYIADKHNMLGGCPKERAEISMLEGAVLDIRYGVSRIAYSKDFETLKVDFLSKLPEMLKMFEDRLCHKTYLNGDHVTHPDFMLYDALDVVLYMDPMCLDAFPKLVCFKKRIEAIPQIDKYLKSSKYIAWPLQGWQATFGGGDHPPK
Procedure: as §1, §2
as §2, with “GFP/p11-1A, p11-2, p11-2-1, and p11-2-2” for “GFP/p11-1, -2, -3”, “proteins” for “protein”, “antibodies. […] These protein fragments correspond to amino acids 1-51, 33-51, 52-77 respectively. GST-SNS(I) efficiently pulled down cell lysate p11-2.” for “antibodies.”

Row | binding result (GFP/p11-1 fusion protein) | binding result [1] | binding result (GST control protein) | Binder
1 | no binding | no binding | – | GST/Nav1.8 N-terminus fusion protein, designated GST-SNS(I) (other, also called GST/SNS(I) fusion protein; not shown: glutathione-S-transferase (GST) as encoded by vector pGEX-5X-1 (Amersham Pharmacia Biotech); species and limits not stat; vector-encoded residues between GST and the EcoRI site of pGEX-5X-1) MELPFASVGTTNFRRFTPESLAEIEKQIAAHRAAKKARTKHRGQEDKGEKPRPQLDLKDCNQLPKFYGELPAELVGEPLEDLDPFYSTHRTFMVLNKSRTISRFSATWALWLFSPFNLIRRTAIKVS
2 | – | – | no binding | GFP-p11 fusion protein (other, not shown: large carriers; small tags and cut ends, Expressed from pBS-GFP/p11 in COS-7 cells and used as cell extract) MPSQMEHAMETMMLTFHRFAGEKNYLTKEDLRVLMEREFPGFLENQKDPLAVDKIMKDLDQCRDGKVGFQSFLSLVAGLIIACNDYFVVHMKQKK
